Source: the RNAGym collection of RNA variant scans (doi:10.1073/pnas.2313332121)

B1: TPR t1 (parent)
chain: GACCAAUCUGCCCUCAGAGCUCGAGAACAUCUUCGGAUGCAGAGGAGGCAGGCUUCGGUGGCGCGAUAGCGCCAACGUCCUCAACCUCCAAUGCAUCCCACCACAUGAUGAUGCCUGAAGAGCCUUGGUUUUUUG

Variants of: B1
Experiment: polymerase ribozyme fitness, log enrichment relative to wild type (log ratio); higher = more active; in vitro selection for triplet polymerase activity
Method in brief: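 A single round of triplicate in vitro selection, including frozen incubation at −7 °C, was applied to PCR-built, transcribed mutant libraries of each subunit of a heterodimeric triplet polymerase ribozyme. Illumina sequencing of input and output libraries retained genotypes with ≥10 input reads and ≥1 read per output. Fitness is the base-2 logarithm of genotype enrichment divided by wild-type enrichment, from inverse-variance-weighted replicate averages.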

Variant	polymerase ribozyme fitness (log ratio)
GACCAAUCUGCCCUCAGAGCUCGAGAACAUCUUCGGAUUCAGAGGAGGCAGGCUUGGGUGGCGCGAUAGCGCCAACGUCCUCAACCUCCAAUGCAUCCCACCACAUGAUGAUGCCUGAAGAGCCUUGGUUUUUUG	-1.37
GACCAAUCUGCCCUCAGAGCUCGAGAACAUCUUCGGAUUCAGAGGAGGCAGGCUUUGGUGGCGCGAUAGCGCCAACGUCCUCAACCUCCAAUGCAUCCCACCACAUGAUGAUGCCUGAAGAGCCUUGGUUUUUUG	0.0586
GACCAAUCUGCCCUCAGAGCUCGAGAACAUCUUCGGAUUCAGAGGAGGCAGGCUUAGGUGGCGCGAUAGCGCCAACGUCCUCAACCUCCAAUGCAUCCCACCACAUGAUGAUGCCUGAAGAGCCUUGGUUUUUUG	-1.06
GACCAAUCUGCCCUCAGAGCUCGAGAACAUCUUCGGAUUCAGAGGGGGCAGGCUUCGGUGGCGCGAUAGCGCCAACGUCCUCAACCUCCAAUGCAUCCCACCACAUGAUGAUGCCUGAAGAGCCUUGGUUUUUUG	-1.02
GACCAAUCUGCCCUCAGAGCUCGAGAACAUCUUCGGAUUCAGAGGAGGCCGGCUUCGGUGGCGCGAUAGCGCCAACGUCCUCAACCUCCAAUGCAUCCCACCACAUGAUGAUGCCUGAAGAGCCUUGGUUUUUUG	-1.21
GACCAAUCUGCCCUCAGAGCUCGAGAACAUCUUCGGAUUCAGAGGAGGCAGGCUUCGGUGGCGCGAUAGCGCCAACGUCCUCAACCUCCAAUGCAUCCCACCAAAUGAUGAUGCCUGAAAAGCCUUGGUUUUUUG	-1.22
GACCAAUCUGCCCUCAGAGCUCGAGAACAUCUUCGGAUUCAGAGGAGGAAGGCUUCGGUGGCGCGAUAGCGCCAACGUCCUCAACCUCCAAUGCAUCCCUCCACAAGAUGAUGCCUGAAGAGCCUUGGUUUUUUG	-1.51
GACCAAUCUGCCCUCAGAGCUCGAGAACAUCUUCGGAUUCAGAGGAGGCAGGCUUCGGUGGCGCGAUAGUGCCAACGUCCUCAACCUCCAAUGCAUCCCACCACAUGAUGAUGCCUGAAGAGCCUUGGUUUUUUG	-2.34
GACCAAUCUGCCCUCAGAGCUCGAGAACAUCUUCGGAUUCAGAGGAGGCAGGCUUCGGUGGCGCGAUAGGGCCAACGUCCUCAACCUCCAAUGCAUCCCACCACAUGAUGAUGCCUGAAGAACCUUGGUUUUUUG	-3.94
GACCAAUCUGCCCUCAGAGCUCGAGAACAUCUUCGGAUUCAGAGGAGGCAGGCUUCGGUGGCGCGAUAGCGCCAACGUCCUCAACCUCCAUUGCAUCCCACCACAUGAUGAUGCCUGAAGAGCCUGGUUUUUUUG	-3.6
GACCAAUCUGCCCUCAGAGCUCGAGAACAUCUUCGGAUUCAGAGGAGGCAGGCUUCGGUGGCGCGAUAGCGUCAACGUCCUCAACCUCCAAUGCAUCCCACCACAUGAUGAUGCCUGAAGAGCCUUGGUUUUUUG	-1.72
GACCAAUCUGCCCUCAGAGCUCGAGAACAUCUUCGGAUUCAGAGGAGGCAGGCUUCGGUGGCGCGAUAGCGCCAACGUCCUCAACCUCCAAUGCAUCCCACCACAUGAUGAUGCUUGAAGAGCCUUGGUUUUUUG	-1.86
GACCAAUCUGCCCUCAGAGCUCGAGAACAUCUUCGGAUUCAGAGGGGGCAGGCUUCGGUGGCGCGAUAGCGCCAACGACCUCAACCUCUAAUGCUUUCCACCACAUGAUGAUGCCUGAAGAGCCUUGGUUUUUUG	-2.4
GACCAAUCUGCCCUCAGAGCUCGAGAACAUCUUCGGAUUCAGAGGAGGCAGGCUUCGGUGGCGCGAUAGCGCCAACGUCCUCAACCUCUAAUGCAUCCCACCACAUGAUGAUGCCUGUAGAGCCUUGGUUUUUUG	-0.539
GACCAAUCUGCCCUCAGAGCUCGAGAACAUCUUCGGAUUCAGAGGAGGCAGGCUUCGGUGGCGUGAUAGCGCCAACGUCCUCACCCUCCAAUGCAUCCCACCACAUGAUGAUGCCUGAAGAGCCUUGGUUUUUUG	-0.386
GACCAAUCUGCCCUCAGAGCUCGAGAACAUCUUCGGAUUCAGAGGAGGCAGGCUUCGGUGGCGCGAUAGCGCCAACGUCCUCAACCUCCAAUGCAUCCCACCACAUGAUGAUGCCUGAGGAGCCUUGGUUUUUUG	0.375
GACCAAUCUGCCCUCAGAGCUCGAGAACAUCUUCGGAUUCAGUGGAGGCAGCCUUCGGUGGCGCGAUAGCGCGAACGUCCUCAACCUCCAAUGAAUGCCACCACAUGAUCAUGCCUGAAGAGCCUUGGUUUUUUG	-7.55
GACCAAUCUGCCCUCAGAGCUCGAGAACAUCUUCGGAUUCAGAGGAGGCAGGCUUCGGUGGCGCGAUAGUGCCAACGUCCUCAACCUCCAAUGCAUCCCACCACAUGAUGAUGCCUCAAGAGCCUUGAUUUUUUG	-5.92
GACCAAUCUGCCCUCAGAGCUCGAGAACAUCUUCGGAUUCAGAGGAGGCAGGGUUCGGUGGCGCGAUAGCGCCAACGUCCUCAACCACCGAUGCAUCCCACCACAUGAUGAUGCCUGAAGAGCCUUGGUUUUUUG	-0.306
GACCAAUCUGCCCUCAGAGCUCGAGAACAUCUUCGGAUUCAGAGGAGGCAGGCUUCGGUGGCGCGAUAGCGCUAACGUCCUCAACCUCCAAUGCAUCCCACCACAUGAUGAUGUCUGAAAAGCCUUCGUUUUUUG	-3.02
GACCAAUCUGCCCUCAGAGCUCGAGAACAUCUUCGGAUUCAGAGGAGGCAGGCUUCGGUGGCGCGAUAGCGCAAACGUCCUCAACCUCCAAUGCAUCCCACCACAUGAUGAUGCCUGAAGAGCCUUGGUUUUUUG	-0.759

Variant	polymerase ribozyme fitness (log ratio)
GACCAAUCUGCCCUCAGAGCUCGAGAACAUCUUCGGAUUCAGAGGAGGCAGGCUUCGGUGGCGCGAUAGCGCCAACGUCCUCAACCUUCAAUGCAUCCCACCACAUUAUGAUACCUGAAGAACCUUGGUUUUUUG	-6.96
GACCAAUCUGCCCUCAGAGCUCGAGAACAUCUUCGGAUUCAGAGGAGGCAGGUUUCGGUGGCGCGAUAGCGCCAACGUCCUCAACCUCCAAUGCAUCCCACCACAUGAUGAUGCCUGAAGAGCCUUGGUUUUUUG	-0.876
GACCAAUCUGCCCUCAGAGCUCGAGAACAUCUUCGGAUUCAGAGGAGGCAGGGUUCGGUGGCGCGAUAGCGCCAACGUCCUCAACCUCCAAUGCAUCCCACCACAUGAUGAUGCCUGAAGAGCCUUGGUUUUUUG	0.711
GACCAAUCUGCCCUCAGAGCUCGAGAACAUCUUCGGAUUCAGAGGAGGCAGGCUUCGGUGGCGCGAUAGUGCCAACGUCCUCAACCUCCAAUGCAGCCCACCACAUGAUGAUUCCUGAAGAGCCUUGGUUUUUUG	-7.29
GACCAAUCUGCCCUCAGAGCUCGAGAACAUCUUCGGAUUCAGAGGAGGCAGGCUUCGGUGGUGCGAUAGCGCCAACGUCCUCAAACUCCGAUGCAUCCCACCACAUGAUGAUGCCUGAUGAGGCGUGGUUUUUUG	-1.09
GACCAAUCUGCCCUCAGAGCUCGAGAACAUCUUCGGAUUCAGAGGAGGCAGGCUUCGGUGGCGCGAUAGCGCCAACGUCCUCAACCUCCAAUGCAUCCCAACACAUGAUGAUGCCUGAAGAGCCUUGGUUUUUUG	-2.22
GACCAAUCUGCCCUCAGAGCUCGAGAACAUCUUCGGAUUCAGAGGAGGCAGGCUUCGGUGGCGCGAUAGCGCCAACGUGCUCAACCUCCAAUGCACCCCACCACAUGAUGAUGCCUGAAGAGCCUUGGUUUUUUG	-4.66
GACCAAUCUGCCCUCAGAGCUCGAGAACAUCUUCGGAUUCAGAGGAGGCAGGUUUCGGUGUCGCGAUAGCGCCAACGUCCUCAACCUCCAAUGCAUCCCACCACAUGAUGAUGCCUGAAGAGACUUGGUUUUUUU	-0.952
GACCAAUCUGCCCUCAGAGCUCGAGAACAUCUUCGGAUUCAGAGGAGGCAGGCUUCGGUGGCGCGAUAGCGCCAACGUCCUCAACCUACAAUGCAUCCCACCACAUGAUGAUGCCUGAAGAGCCUUGGUUUUUUG	-2.37
GACCAAUCUGCCCUCAGAGCUCGAGAACAUCUUCGGAUUCAGAGGAGGCAGGCUUCGGUGGCGCGAUAGCGCCAACGUCCUCAACCUUCAAUGCAUCCCACCACAUGAUGAUGCCUGAAGAGCCUUGGUUUUUUG	-0.766
GACCAAUCUGCCCUCAGAGCUCGAGAACAUCUUCGGAUUCAGAGGAGGCAGGCUUCGGUGGCGUGAUAGCGCCAACGUCCUCAACCUCCAAUGCAUCCCAGCACAUGGUGAUGCCUGAAGAGCCUUGGUUUUUUG	-4.66
GACCAAUCUGCCCUCAGAGCUCGAGAACAUCUUCGGAUUCAGAGGAGGCAGGCUUCGGUGGCGCGAUAGCGCCAACGUCCUCAACCUCCAAUGGAUCCCACCACAUGAUAAUGCCUGAAGAGCCUUGGUUUUUUG	-1.31
GACCAAUCUGCCCUCAGAGCUCGAGAACAUCUUCGGAUUAAGAGGAGGCAGGCUUCGGUGGUGCGAUAGCGCCAACGUCCUCAACCUCCAAUGCAUCCCACCACAUGAUGAUGCCUGAAGAGCCUUGGUUUUUUG	-2.99
GACCAAUCUGCCCUCAGAGCUCGAGAACAUCUUCGGAUUCAGAGGAGGCAGGCUUCGGUGGCGCGAUAGCGCCAACGUCCUCAACCUCCAAUGCAUCCCACAACAUGAUGAUGCCUGAAGAGCCUUGGUUUUUUG	-3.45
GACCAAUCUGCCCUCAGAGCUCGAGAACAUCUUCGGAUUCAGAGGAGGCAGGCUUCGGUGGCGCGAUAGCGCCAACGUUCUCAACCUCAAAUGCAUCCCACCACAUGAUGUUGCCUGAAGAGCCUUGGUUUUUUG	-5.59
GACCAAUCUGCCCUCAGAGCUCGAGAACAUCUUCGGAUUCAGAGGAGGCAGGCUUCGGUGGCGCGAUAGCGCCAAGGUCCUCAACCUCCAAUGCAUCCCACCACAUGAUGAUGCCUGAAGAGCCUUGGUUUUUUG	-0.793
GACCAAUCUGCCCUCAGAGCUCGAGAACAUCUUCGGAUUCAGAGGAGGCAGGCUUCGGUGGCGCGAUAGCGCCAAUGUCCUCAACCUCCAAUGCAUCCCACCACAUGAUGAUGCCUGAAGAGCCUUGGUUUUUUG	-0.958
GACCAAUCUGCCCUCAGAGCUCGAGAACAUCUUCGGAUUGAGAGGAGGCAGGCUUCGGUGGCGUGAUAGCGCCAACGUCCUCAACCUCCAAUGCAUCCCACCACAAGAAGAUGCCUGAACAGCCUUGGUUUUUUG	-5.69
GACCAAUCUGCCCUCAGAGCUCGAGAACAUCUUCGGAUUCAGAGGAGGCAGGCUUCGGUGGCGCGAUAGCGCUAACGUCCUCAACCUCCAAUGCAUCCUACCACAUGAUGAUGCCUGAAGAGCCUUGGUUUUUUG	-4.75
GACCAAUCUGCCCUCAGAGCUCGAGAACAUCUUCGGAUUCAGAGGAGGCAGGCUUCGGUGGCGCGAUAGCGCCAACGUCCUCAACCUCCAAUGCAUCCCACCACAUGAUGAUGUCUGAAGAGCCUUGGUUUUUUG	-2.86
GACCAAUCUGCCCUCAGAGCUCGAGAACAUCUUCGGAUUCAGAGGAGGCAGGCUUCGGUGGCGCGAUAGCGCCAACGUCCUCAACCUCCAAUGCAUCCCACCACAUGAUGAUGGCUGAAGAGCCUUGGUUUUUUG	-3.65
